Bridges are numbered along the chain shown (N, C = ends). Roman numbers before positions name the chains, in order. Where no end group is shown, it is not given here. [ ]: non-standard residue; d: D form. fluorescein = fluorescein fluorescent label attached to the peptide; βAla = NCCC(=O)O

The target of assay [1] is T1, c-Met (Homo sapiens, UniProt P08581).
T1 construct: endogenous in cells; host or cells: EHMES-1 (human mesothelioma)
Nature of the assay: Activity of dimeric peptide by ELISA (c-Met phosphorylation level in EHMES-1 cells). It counts as cell-based. As to conditions: for Activity (c-Met phosphorylation level by ELISA): Table 12, EHMES-1 cells, 10 minutes stimulation; for c-Met phosphorylation: Table 13. As to the method:
Each dimeric peptide was added to human EHMES-1 cells and the mixture was incubated for 10 minutes to stimulate the cells.
As a control experiment, a recombinant human HGF protein was added and the mixture was incubated for 10 minutes to stimulate cells.
A phosphorylation level of c-Met was quantitatively analyzed using ELISA.

The target of another assay is c-Met-Fc (Homo sapiens, UniProt P08581). In words: Binding ability by surface plasmon resonance (SPR, Biacore). To be noted: Table 11, monomer and dimeric peptides. In outline:
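c-Met-Fc captured via anti-IgG on a CM5 chip, with Fc alone as reference. Peptide run at 5 concentrations in HBS-EP+ containing 0.1% DMSO. Dissociation constant derived by single-cycle kinetics.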
In general terms: SPR reads the build-up and loss of mass on a sensor chip optically.

In the next assay the test system is human Hcc-827 cells. In words: Cell growth of Iressa-inhibited Hcc-827 cells (MTS assay). To be noted: Table 13, Hcc-827 cells inhibited by Iressa. The assay is classed as cell-based. As to the method:
Dimeric peptides were added to human Hcc-827 cells whose cell growth was inhibited by the addition of Iressa and the resulting mixture was cultured to activate the cell growth ability via a c-Met signaling pathway. The cell count of the thus-cultured cells was quantitatively determined by the assay using MTS (3-(4,5-dimethylthiazol-2-yl)-5-(3carboxymethoxyphenyl)-2-(4-sulphophenyl)-2H-tetrazolium, inner salt).

The subject of assay [2] is human c-Met expressing cells (human SNU-638 cells). Nature of the assay: Localization of fluorescein-modified peptides on c-Met expressing cells (confocal microscopy). It counts as cell-based. To be noted: 1 μM fluorescein peptide, FIG. 2A. As to the method:
To human c-Met expressing cells (human SNU-638 cells) or human c-Met non-expressing cells (human SNU-216 cells) cultured on a glass-bottom dish were added a RPMI1640 medium containing 1 mg/L of Hoechst 33342, a nuclear staining reagent, an anti-human c-Met antibody, and 1 uM of L5-2-fluorescein, D4-3-fluorescein, D5-4-fluorescein, D4-3NMe-fluorescein, or D4-3scr-fluorescein and the resulting mixture was incubated in 5% CO2 at 37° C. for 5 minutes. Then, a RPMI1640 medium containing an HRP-anti-rat secondary antibody and 1 μM of L5-2-fluorescein, D4-3-fluorescein, D5-4-fluorescein, D4-3NMe-fluorescein, or D4-3scr-fluorescein was added and the resulting mixture was incubated in 5% CO2 at 37° C. for 5 minutes.
The cells were washed three times with a D-MEM medium and were microscopically observed in a new RPMI1640 medium. The localization of the peptide was observed using a confocal fluorescence microscope for the microscopic observation.

The target in assay [3] is T1, c-Met. In words: Activity of dimeric peptide by Phospho-RTK array in EHMES-1 cells. The assay is classed as cell-based. As to conditions: optimum concentration, 10 minutes, FIG. 4. As to the method: The optimum concentration of each dimeric peptide was added to cultured EHMES-1 cells derived from human mesothelioma and the resulting mixture was incubated for 10 minutes to stimulate the cells. As a control experiment, 2 nM recombinant human HGF protein was added, followed by incubation for 10 minutes.
The resulting cells were lyzed and the lysate thus obtained was analyzed using Phospho-RTK array (R&D Systems) to evaluate whether or not the c-Met of the cells was phosphorylated.

In assay [4] the test system is c-Met, Gab1, Akt, and Erk proteins. In words: Activity of dimeric peptide by western blotting in EHMES-1 cells. It counts as cell-based, human. To be noted: 10 minutes, FIG. 5. As to the method:
The optimum concentration of each of the dimeric peptides was added to cultured EHMES-1 cells derived from human mesothelioma and the resulting mixture was incubated for 10 minutes to stimulate the cells. As a control experiment, 2 nM of a recombinant human HGF protein was added, followed by incubation for 10 minutes.
The cells were lysed and the resulting lysate was electrophoresed using a 10% modified polyacrylamide gel. After transcription of the protein thus separated to an Immobilon-P PVDF membrane (Millipore) and blocking with PVDF Blocking Reagent for Can Get Signal (TOYOBO), a primary antibody reaction of it was performed overnight at 4° C. in Can Get Signal Solution 1 (TOYOBO). As the antibody, anti-Met (Millipore, EP1454Y), anti-Phospho-Met Tyr1234/1235 (Cell Signaling Technology, D26), anti-Phospho-Met Tyr1349 (Millipore, 07-808), anti-Akt (Cell Signaling Technology, 11E7), anti-Phospho-Akt Thr308 (Cell Signaling Technology, D25E6), anti-Erk1/2 (Cell Signaling Technology, 137F5), anti-Phospho-Erk1/2 Thr202/Tyr204 (Cell Signaling Technology, D13.14.4E), anti-Gab1 (Cell Signaling Technology), or anti-Phospho-Gab1 Tyr 627 (Cell Signaling Technology, C32H2) was used. Then, a secondary antibody reaction was performed at room temperature for one hour in Can Get Signal Solution 2 (TOYOBO) by using an anti-rabbit antibody HRP conjugate. […]
Background: In western blotting, separated proteins are transferred to a membrane and probed.

Chain of c-Met-Fc (P08581 with tags, fused parts or gaps limits assumed): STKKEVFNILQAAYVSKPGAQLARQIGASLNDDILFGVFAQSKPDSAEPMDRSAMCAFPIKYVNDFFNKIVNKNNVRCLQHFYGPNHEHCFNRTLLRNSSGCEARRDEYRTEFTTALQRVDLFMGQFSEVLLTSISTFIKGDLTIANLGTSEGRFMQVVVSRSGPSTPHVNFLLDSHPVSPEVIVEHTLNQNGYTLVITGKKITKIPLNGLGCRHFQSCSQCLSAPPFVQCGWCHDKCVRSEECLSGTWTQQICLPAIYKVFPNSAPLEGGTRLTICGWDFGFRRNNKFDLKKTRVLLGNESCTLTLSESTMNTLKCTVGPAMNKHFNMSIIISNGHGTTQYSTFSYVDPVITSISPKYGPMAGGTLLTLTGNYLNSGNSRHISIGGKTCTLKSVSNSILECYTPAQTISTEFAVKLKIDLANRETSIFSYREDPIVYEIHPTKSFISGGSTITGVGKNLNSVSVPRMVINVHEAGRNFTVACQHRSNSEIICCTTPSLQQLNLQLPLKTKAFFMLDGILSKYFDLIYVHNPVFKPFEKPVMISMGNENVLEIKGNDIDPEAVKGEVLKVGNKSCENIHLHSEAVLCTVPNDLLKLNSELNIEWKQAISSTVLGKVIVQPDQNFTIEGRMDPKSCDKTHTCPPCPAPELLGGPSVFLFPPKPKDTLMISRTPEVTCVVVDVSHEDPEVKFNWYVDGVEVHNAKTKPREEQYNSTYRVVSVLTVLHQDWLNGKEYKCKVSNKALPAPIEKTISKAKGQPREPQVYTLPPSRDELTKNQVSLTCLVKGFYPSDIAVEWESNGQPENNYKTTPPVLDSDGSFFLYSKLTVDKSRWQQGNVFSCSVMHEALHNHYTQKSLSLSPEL
Chain of c-Met-Fc (P08581 25-307 limits assumed): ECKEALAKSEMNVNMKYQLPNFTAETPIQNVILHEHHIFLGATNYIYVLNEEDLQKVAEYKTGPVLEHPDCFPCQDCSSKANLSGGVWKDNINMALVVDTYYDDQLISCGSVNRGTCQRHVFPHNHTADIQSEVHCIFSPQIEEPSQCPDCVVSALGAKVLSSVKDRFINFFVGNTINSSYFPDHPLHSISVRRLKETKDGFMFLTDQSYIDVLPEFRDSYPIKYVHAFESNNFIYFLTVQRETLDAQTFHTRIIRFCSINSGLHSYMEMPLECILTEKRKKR
T1 sequence (P08581 25-1390): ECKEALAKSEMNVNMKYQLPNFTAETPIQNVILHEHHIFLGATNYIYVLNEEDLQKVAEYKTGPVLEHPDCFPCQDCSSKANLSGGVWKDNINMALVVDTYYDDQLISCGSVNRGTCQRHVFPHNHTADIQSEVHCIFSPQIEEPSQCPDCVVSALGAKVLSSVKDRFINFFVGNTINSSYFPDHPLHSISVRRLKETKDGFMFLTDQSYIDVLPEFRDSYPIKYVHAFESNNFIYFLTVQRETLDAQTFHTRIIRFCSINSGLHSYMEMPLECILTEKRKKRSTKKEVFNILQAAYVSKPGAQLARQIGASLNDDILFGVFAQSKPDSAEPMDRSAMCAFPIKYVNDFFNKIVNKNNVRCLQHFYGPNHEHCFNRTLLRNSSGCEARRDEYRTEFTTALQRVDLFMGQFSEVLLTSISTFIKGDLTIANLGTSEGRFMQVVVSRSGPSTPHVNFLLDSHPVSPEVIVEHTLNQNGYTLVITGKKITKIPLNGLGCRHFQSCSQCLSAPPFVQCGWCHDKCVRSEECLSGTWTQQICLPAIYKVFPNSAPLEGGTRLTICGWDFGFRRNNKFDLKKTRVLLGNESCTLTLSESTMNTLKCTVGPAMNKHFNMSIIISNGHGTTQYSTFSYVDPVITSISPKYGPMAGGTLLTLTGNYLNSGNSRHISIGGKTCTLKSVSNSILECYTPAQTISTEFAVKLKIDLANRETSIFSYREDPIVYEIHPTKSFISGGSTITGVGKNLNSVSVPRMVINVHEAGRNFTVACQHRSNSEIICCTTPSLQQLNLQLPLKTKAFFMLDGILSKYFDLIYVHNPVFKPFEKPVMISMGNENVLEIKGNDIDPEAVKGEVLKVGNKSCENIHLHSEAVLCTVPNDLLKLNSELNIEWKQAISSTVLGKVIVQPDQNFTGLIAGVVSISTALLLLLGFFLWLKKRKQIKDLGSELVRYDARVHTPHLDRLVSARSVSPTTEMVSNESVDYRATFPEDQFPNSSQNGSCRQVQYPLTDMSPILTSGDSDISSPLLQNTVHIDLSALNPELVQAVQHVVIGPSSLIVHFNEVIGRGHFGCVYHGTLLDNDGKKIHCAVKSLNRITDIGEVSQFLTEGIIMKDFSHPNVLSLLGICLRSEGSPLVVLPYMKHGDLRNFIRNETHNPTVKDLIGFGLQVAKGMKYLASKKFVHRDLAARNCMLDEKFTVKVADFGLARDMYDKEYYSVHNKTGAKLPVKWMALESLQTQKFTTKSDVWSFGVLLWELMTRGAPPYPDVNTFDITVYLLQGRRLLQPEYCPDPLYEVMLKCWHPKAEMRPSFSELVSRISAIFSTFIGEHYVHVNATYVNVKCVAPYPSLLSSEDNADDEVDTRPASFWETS

For “D4-3 BMH: dimeric peptide: two D4-3 macrocycles linked through C-terminal Cys by BMH linker ({CH2CO}-[dY]RQFNRRTHEVWNLDCGC; thioether N-16; not fully specified (residue 18); also: dimer: two copies joined by BMH, linker at 18 via BMH, other end not in the chain)”, in the assay with c-Met [1], the “Activity (c-Met phosphorylation level by ELISA)” value (from here on “Activity”) is listed as “Low” and the c-Met phosphorylation entry is “Promote”. In addition, in the assay with c-Met-Fc, the ka was 2.0 10^6 M^−1s^−1 and the kd is 0.091 10^−2 s^−1. The Cell growth result in the assay on human Hcc-827 cells is “Activate”.
“D4-3-fluorescein: Fluorescein-modified D4-3 peptide, fluorescein on the side chain of C-terminal lysine ({CH2CO}-[dY]RQFNRRTHEVWNLDCGK(fluorescein); thioether N-16)”: the “Binding to c-Met expressing cells” value in assay [2] is “colocalized with and bind to”.
Consider “D4-3NMe-fluorescein: Fluorescein-modified N-methylated D4-3 peptide ({CH2CO}-[dY]RQFNRRTHEVWNLDCGK(fluorescein); thioether N-16; also: two amino acids N-methylated (N6 + N16))”, for which, in assay [2], the “Binding to c-Met expressing cells” value was “colocalized with and bind to”.
Still for that read-out and setting: then “D4-3scr-fluorescein: Fluorescein-modified c-Met-unbinding peptide ({CH2CO}-YERVNHLFRNQTWDRCGK(fluorescein); thioether N-16 (inferred)) [reference compound]”, with “does not bind”.
Consider “D5-4 BMH: dimeric peptide: two D5-4 macrocycles linked through C-terminal Cys by BMH linker (peptide 1 {CH2CO}-[dY]WYYAWDQTYKAFPCG; peptide 2 {CH2CO}-[dY]WYYAWDQTYKAFPCG; thioether I:N-I:15, II:N-II:15; not fully specified (C-terminus); also: dimer: two chains joined by BMH through an added C-terminal Cys not in the letters)”, for which, in the assay with c-Met [1], the “Activity” value is on record as “High” and the c-Met phosphorylation entry is given as “Promote”. Further, in the assay with c-Met-Fc, the ka was 0.046 10^6 M^−1s^−1 and the kd is reported as 0.055 10^−2 s^−1. Moreover, the Cell growth result with human Hcc-827 cells is “Activate”.
For “HGF: recombinant human HGF protein, natural ligand of c-Met, control”, the “Autophosphorylation of c-Met (Phospho-RTK array)” value with c-Met [3] was “autophosphorylation is induced”. For the same substance, the “Phosphorylation of c-Met, Gab1, Akt, and Erk proteins (western blotting)” value in assay [4] was “promote phosphorylation”.
For the substance “L5-2 BMH: dimeric peptide: two L5-2 macrocycles linked through C-terminal Cys by BMH linker ({CH2CO}-YISWNEFNSPNWRFITCG[βAla]C-NH2; thioether N-17; not fully specified (residue 20); also: dimer: two copies joined by BMH, linker at 20 via BMH, other end not in the chain)”, in the assay with c-Met [1], the “Activity” value is reported as “Low” and the c-Met phosphorylation result is “Promote”. Also, in the assay with c-Met-Fc, the ka is given as 0.083 10^6 M^−1s^−1 and the kd is reported as 0.054 10^−2 s^−1. Moreover, the Cell growth entry in the assay with human Hcc-827 cells is listed as “Activate”.
